# In US11202837B2, “Biological materials and uses thereof” (Antikor Biopharma Limited, priority 2014, dated 2021):
# “And” between values parts separate entries of the source, which are not always exact repeats. Equal values may be shown once.
# B1: scFv (TCT1067)-P5-C5 (conjugate)
# scFv: SGSGGSGQVQLVQSGAEVKKPGESLKISCKGSGYSFTSYWIAWVRQMPGKGLEYMGLIYPGDSDTKYSPSFQGQVTISVDKSVSTAYLQWSSLKPSDSAVYFCARHDVGYCTDRTCAAWPEWLGVWGQGTLVTVSSGGGGSGGGGSGGGGSQSVLTQPPSVSAAPGQKVTISCSGSSSNIGNNYVSWYQQLPGTAPKLLIYGHTNRPAGVPDRFSGSKSGTSASLAISGFRSEDEADYYCASWDYTLSGWVFGGGTKLTVLMASMTGGQQMG
# B2: scFv (TCT1067) (protein)
# scFv: SGSGGSGQVQLVQSGAEVKKPGESLKISCKGSGYSFTSYWIAWVRQMPGKGLEYMGLIYPGDSDTKYSPSFQGQVTISVDKSVSTAYLQWSSLKPSDSAVYFCARHDVGYCTDRTCAAWPEWLGVWGQGTLVTVSSGGGGSGGGGSGGGGSQSVLTQPPSVSAAPGQKVTISCSGSSSNIGNNYVSWYQQLPGTAPKLLIYGHTNRPAGVPDRFSGSKSGTSASLAISGFRSEDEADYYCASWDYTLSGWVFGGGTKLTVLMASMTGGQQMG
# Legend:
# [1] = Body weight and tolerability in BT474 xenograft studies; format: in vivo, mouse; settings: BT474 xenograft study
# Excerpt: Treatment-Related Side Effects. Test animals were weighed Day 1. Animals were observed frequently for overt signs of any adverse, treatment-related side effects. Individual body weight loss was monitored every other day and any animal whose weight exceeded the limits for acceptable body weight loss was euthanized. Group mean body weight loss also was monitored as per protocol. Acceptable toxicity for the maximum tolerated dose (MTD) was defined as a group mean body weight loss of less than 20% during the test.
# [2] = test system: BT474 human breast carcinoma xenografts; test: Tumour penetration in BT474 xenografts, immunohistochemistry 2 hrs post dose; format: in vivo, mouse; settings: 5 mg/kg single i.v. dose, SCID mice, BT474, payload detection (total ADC)
# Description: (§1) Mice. […] The animals were fed ad libitum water (reverse osmosis, 1 ppm Cl), and NIH 31 Modified and Irradiated Lab Diet® consisting of 18.0% crude protein, 5.0% crude fat, and 5.0% crude fiber. The mice were housed on irradiated Enrich-o'cobs™ Laboratory Animal Bedding in static microisolators on a 12-hour light cycle at 20-22° C. (68-72° F.) and 40-60% humidity. Charles River Discovery Services North Carolina (CR Discovery Services, who carried out this contracted R&D) specifically complies with the recommendations of the Guide for Care and Use of Laboratory Animals with respect to restraint, husbandry, surgical procedures, feed and fluid regulation, and veterinary care. The animal care and use program at CR Discovery Services is accredited by the Association for Assessment and Accreditation of Laboratory Animal Care International (AAALAC), which assures compliance with accepted standards for the care and use of laboratory animals.
# Therapeutic (test) Agents. […] All dosing solutions were stored at 4° C. until dosed. […] Treatment.
# [3] = test system: BT474 human breast carcinoma xenografts; test: Tumour growth inhibition or eradication in BT474 xenograft model; format: in vivo
# Description: as §1, with “care.” for “care. The animal care and use program at CR Discovery Services is accredited by the Association for Assessment and Accreditation of Laboratory Animal Care International (AAALAC), which assures compliance with accepted standards for the care and use of laboratory animals.”
# Tumor weight may be estimated with the assumption that 1 mg is equivalent to 1 mm^3 of tumor volume.
# [4] = Concentration reached and storage stability of purified conjugates in buffer; format: physicochemical; settings: after purification and concentration
# HER2 [5] = target: T1, HER2 (Homo sapiens, UniProt P04626); test: Rat urine analysed on a HER2-Biacore SPR chip; format: in vivo; settings: 10-fold concentrated urine, compared to free scFv samples
# Description: (A) A single i.v. dose was injected into male Sprague-Dawley rats at 4 mg/kg. Plasma samples were taken at time points indicated and analysed by ELISA using anti-protein detection (total protein, indicated by solid lines, closed symbols) and where relevant anti-drug detection (total ADC, indicated by dashed lines, open symbols). The SE of the mean of each group and experimental triplicates are shown. ADC scFv (TCT1067)-P5C5 (circles) (n=3) and scFv (TCT1067) (squares) (n=3). (B) 10-fold concentrated urine collected over 24 hours analysed on a HER2-Biacore SPR chip for the scFv (TCT1067)-injected rats, 3 animal samples. The scFv reference is shown. The bulk shifts in the urine samples are due to the concentration of urine components. (C) 10-fold concentrated urine collected over 24 hours analysed on a HER2-Biacore SPR chip for the scFv (TCT1067)-P5C5 conjugate-injected rats, 3 animal samples. The scFv (TCT1067)-P5C5 reference is shown. The bulk shifts in the urine samples are due to the concentration of urine components.
# The scFv (TCT1067)-P5C5 conjugate were detected in the plasma via its T7 tag (detecting total antibody) and via the payload (detecting total ADC). […] The urine from the treated animals was collected over 24 hours, concentrated 10-fold in a spin concentrator (MWCO-10 kDa) and dialysed against PBS. These samples, from three rats per group, were analysed on a Biacore SPR chip.
# [6] = Plasma pharmacokinetics in Sprague-Dawley rats (ELISA); format: in vivo, rat; settings: for Bioavailability (blood exposure, AUC, 24 hrs): mean AUC in anti-payload and anti-protein detection; for Elimination half-life (hrs) Total Antibody: plasma ELISA
# Description: Rats. Male Sprague-Dawley rats (sourced from Charles River, UK) were group housed in a temperature and light controlled facility on a 12 hour light/dark cycle with food and water available ad libitum. Rats selected for study inclusion were individually housed until completion of the study. All animals were subjected to health monitoring in accordance with the guidelines by the onsite home office registered veterinarian. All animal experimentation was covered under the UK Animals (Scientific Procedures) Act (1986) and EU directive 86/609/EEC. All such work was monitored by regular inspections of procedures and facilities by the on-site Veterinarian and UK Home Office inspectors. The study design required the surgical implantation of catheters into the jugular of male Sprague-Dawley rats.
# Rats were anaesthetised using the inhalation anaesthetic isoflurane and placed in dorsal recumbency. The right jugular vein was exposed and a loose ligature was placed caudally and the cranial end of vein was ligated. A small incision was made between the ligatures into which the catheter (polyethylene 50 tubing) was inserted. The catheter was secured in place by tying the loose ligature around the catheterised vessel. A small incision was made in the scapular region to serve as the exit site of the catheter. The catheter was subcutaneously tunneled and exteriorised through the scapular incision. Patency of the catheter was tested, and the catheter was filled with a locking solution (heparinised saline) and sealed with a stainless steel pin. Post-operative monitoring of animals was performed according to Home Office good practice guidelines. Intravenous dosing was via the tail vein.
# (§2) Therapeutic (test) Agents. All test agents were supplied as ready-to-dose dosing solutions. All dosing solutions were stored at 4° C. until dosed. All treatments were administered in a dosing volume scaled to the body weights of the individual animals to obtain the dosing concentration described in the treatment tables.
# Treatment (rats). On Day 1 of the study, rats were divided into groups of three animals (per test agent being evaluated), and dosing was initiated according to the treatment plan summarized in the tables below
# Sampling (rats). Serial venous blood samples (approx. 0.1-0.2 ml) were collected via the exteriorised jugular vein catheter at specified time points (0.5 to 72 hrs post dosing) and placed in heparinised containers. Prior to taking the blood samples the catheter was evacuated of heparinised saline to prevent dilution of the blood sample. Following each blood sample the volume of blood removed is replaced with an equal volume of heparinised saline via the catheter and sealed. Blood samples were centrifuged (5 minutes, 16,100 g, 4° C.) to separate the plasma. Plasma samples were transferred to fresh containers and promptly frozen and stored at −20° C. until used for analysis.
# (§3) Quantification of test agents in plasma. An ELISA was carried out as described in Example 31 The detecting antibodies were (a) Anti-T7 tag to detect the scFv (total antibody), (b) Anti-Human Fab-specific to detect trastuzumab (total antibody), (c) Anti-MMAF (Concortis), Anti-MMAE (Concortis), anti-DM1
# (§4) (Concortis) and anti-cemadotin (in-house mouse monoclonal antibody, Example 33 that also recognised P5C5 and AuristatinF), total ADC. The reference test agents were used to construct a calibration curve for which the plasma samples were compared to, in order to quantify the amount present. The concentration was plotted against time (average of three animals with standard error) and fitted to a 2-phase decay curve using GraphPad Prism to derive kinetic parameters.
# HER2 [7] = target: T1, HER2; test: Biacore SPR binding to immobilised HER2; settings: immobilised HER2
# Procedure, shortened: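 HER2 amine-coupled on CM5 or CM3 chips, Biacore T200. Free antibody (typically 5-0.6 μg/ml) and conjugates (20-2.5 μg/ml) injected 160 s at 30 μl/min, 900 s dissociation (3600 s at highest concentration); regeneration with 8M MgCl2. Kinetics compared with unmodified scFv.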
# [8] = Aggregation by HPLC size-exclusion chromatography; format: physicochemical
# Description: Aggregation can be tested by analytical size-exclusion HPLC measuring the percentage of high molecular weight material compared to the conjugate eluting at a retention time characteristic of a monomeric conjugate.
# Typically, 20 μg of protein was injected for analytical runs and 300 μg for semi-preparative runs.
# [9] = Plasma pharmacokinetics in BALB/c mice (ELISA, total antibody and total ADC); format: in vivo, mouse; settings: for Bioavailability (blood exposure, AUC, 24 hrs) / Elimination half-life (hrs) Total Antibody: mice; for Bioavailability (blood exposure, AUC, 24 hrs): mean AUC in anti-payload and anti-protein detection; for Elimination half-life (hrs) Total Antibody: plasma ELISA
# Description: Mice. Female BALB/c mice (BALB/cAnNCrl, Charles River) were eight weeks old with body weights ranging from 15.9 to 21.9 grams at the beginning of the study. The animals were fed ad libitum water (reverse osmosis, 1 ppm Cl) and NIH 31 Modified and Irradiated Lab Diet® consisting of 18.0% crude protein, 5.0% crude fat, and 5.0% crude fiber. The mice were housed on irradiated Enrich-o'cobs™ Laboratory Animal Bedding in static microisolators on a 12-hour light cycle at 20-22° C. (68-72° F.) and at 40-60% humidity. Charles River Discovery Services North Carolina (CR Discovery Services, who carried out this contracted R&D) specifically complies with the recommendations of the Guide for Care and Use of Laboratory Animals with respect to restraint, husbandry, surgical procedures, feed and fluid regulation, and veterinary care. The Animal Care and Use program at CR Discovery Services is accredited by the Association for Assessment and Accreditation of Laboratory Animal Care International, which assures compliance with accepted standards for the care and use of laboratory animals.
# as §2
# Treatment (mice). On Day 1 of the study, mice were divided into groups each consisting of eighteen mice (per test agent being evaluated), and dosing was initiated according to the treatment plan summarized in the treatment tables. All doses were administered intravenously (i.v.) by tail vein injection as described in the tables below.
# Endpoint. The study endpoint occurred after the last sampling point, typically on Day 2 or 4, twenty-four or seventy-two hours post dose.
# Sampling (mice). Blood (full blood volume) was collected from three animals per treatment group per timepoint. Samples were collected from all animals via terminal cardiac puncture under isoflurane anesthesia. Once collected, blood samples were collected into collection tubes containing lithium heparin or K2EDTA as anticoagulants and were processed for plasma at each timepoint. Each plasma sample was stored at −80° C. until used for analysis.
# as §3, §4
# HER2 [10] = target: T1, HER2; settings: by mutagenesis, Schier R et al (1996); cited from earlier work
# [11] = single i.v. dose 4 mg/kg, male Sprague-Dawley rats
molecule,measurement,setting,value
B1,"body weight, heavier than the IgG ADC group of mice",[1],up to 20%
same,tolerability from body weights (in words),[1],better tolerated
same,localisation in tumour sections at 2 hrs post-dosing,[2],localise throughout the tumour
same,tumour growth delay,[3]; 5 mg/kg dosing regimen,~20 days
same,tumour shrinkage compared with the trastuzumab ADC,[3]; scFv ADC dosed more frequently,more effectively
same,time stable in the buffer,[4],several months
same,HER2 binding activity in urine collected over 24 hours,HER2 [5],comparable binding activity
same,"Bioavailability (blood exposure, AUC, 24 hrs)","[6]; rats, 1 × 4 mg/kg, Table 64",90.1 μghr/ml
same,Elimination half-life (hrs) Total ADC,"[6]; rats, 1 × 4 mg/kg, plasma ELISA anti-payload, Table 64",2.2085 h
same,Elimination half-life (hrs) Total Antibody,"[6]; rats, 1 × 4 mg/kg, Table 64",0.512 h
same,increase in bioavailability (AUC) over unmodified scFv,[6]; [11],4.5 fold
same,plasma clearance (in words),[6]; [11],clears more slowly than the unmodified fragment
same,stability in plasma (total antibody vs total ADC clearance lines),"[6]; single i.v. dose 4 mg/kg, rats",stable in plasma
same,volume of distribution compared to unmodified scFv,"[6]; single i.v. dose 4 mg/kg, rats",lower volume of distribution
B2,association rate,HER2 [7],3.9e+06 M⁻¹ s⁻¹ and 3.88e+06 M⁻¹ s⁻¹
same,dissociation rate,HER2 [7],3.7e-05 s⁻¹ and 3.69e-05 s⁻¹
same,% aggregate by HPLC-SEC (FIG. 71),[8]; scFv conjugation reaction with 5 molar equivalents of Auristatin F-C5 NHS (reactions 1 and 4),0%
same,% aggregate by HPLC-SEC (FIG. 71),[8]; scFv conjugation reaction with 10 molar equivalents of Auristatin F-C5 NHS (reactions 2 and 5),0%
same,% aggregate by HPLC-SEC (FIG. 71),[8]; scFv conjugation reaction with 25 molar equivalents of Auristatin F-C5 NHS (reactions 3 and 6),0%
same,"Bioavailability (blood exposure, AUC, 24 hrs)","[9]; 1 × 2 mg/kg, Table 61 (AF-C5)",8.13 μghr/ml
same,"Bioavailability (blood exposure, AUC, 24 hrs)","[9]; 1 × 2 mg/kg, Table 62",8.13 μghr/ml
same,Elimination half-life (hrs) Total Antibody,"[9]; 1 × 2 mg/kg, Table 61 (AF-C5)",1.05 h
same,Elimination half-life (hrs) Total Antibody,"[9]; 1 × 2 mg/kg, Table 62",1.05 h
same,"Bioavailability (blood exposure, AUC, 24 hrs)","[9]; 1 × 5 mg/kg, Table 57",8.12 μghr/ml
same,Elimination half-life (hrs) Total Antibody,"[9]; 1 × 5 mg/kg, Table 57",1.05 h
same,plasma clearance (in words),"[9]; single i.v. dose, female BALB/c mice (5 mg/kg MMAF-C5, P5C5; 2 mg/kg AF-C5, DM1)",clears rapidly
same,"Bioavailability (blood exposure, AUC, 24 hrs)","[6]; rats, 1 × 4 mg/kg, Table 64",20.46 μghr/ml
same,Elimination half-life (hrs) Total Antibody,"[6]; rats, 1 × 4 mg/kg, Table 64",0.8 h
same,plasma clearance (in words),[6]; [11],clears rapidly
same,increase of binding affinity over the anti-HER2 scFv of Example 27,HER2 [10],over 1000 fold
